According to patent US20240327535A1 (EISAI R AND D MANAGEMENT, published 2024):
Where a chain is given by its changes, count along the chain named.

T1: extracellular domain of human BCMA (human, UniProt Q02223 1-54)
T1 construct: amine-linked to Octet AR2G tips; also called hsBCMA; BCMA (human)
T1 sequence: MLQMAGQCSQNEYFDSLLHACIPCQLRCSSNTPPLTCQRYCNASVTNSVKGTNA

B1: AB200-R1H32-R2Vk1 (Fab, V domains shown)
VH: QVQLVQSGAEVKKPGSSVKVSCKASGGTFSNYWMHWVRQAPGQGLEWMGATYRSHSDTYYNQKFKSRVTITADKSTSTAYMELSSLRSEDTAVYYCARGAIYHGYDVIDNWGQGTLVTVSS
VL: DIQMTQSPSSLSASVGDRVTITCRASQSISSYLNWYQQKPGKAPKLLIYAASSLQSGVPSRFSGSGSGTDFTLTISSLQPEDFATYYCQQFRKLPWSFGQGTKLEIKR
B2: AB200-R1H32-R2Vk20 (Fab, V domains shown)
VH: B1 VH
VL: B1 VL with A51T, S53N, F91Y, K93R, L94I, S97T
B3: AB200-R1H32-R2Vk5 (Fab, V domains shown)
VH: B1 VH
VL: B1 VL with A51T, S53N, S56I
B4: AB200-R1H32-R2Vk31 (Fab, V domains shown)
VH: B1 VH
VL: B1 VL with A51T, S53N, S56I, K93R, S97T
B5: AB200-R1H32-R2Vk6 (Fab, V domains shown)
VH: B1 VH
VL: B1 VL with L33I, A51T, S53N
B6: AB200-R1H32-R2Vk8 (Fab, V domains shown)
VH: B1 VH
VL: B1 VL with L33I, A51T, S53N, S56I
B7: AB200-R1H32-R2Vk2 (Fab, V domains shown)
VH: B1 VH
VL: B1 VL with L33I
B8: AB200-R1H32-R2Vk17 (Fab, V domains shown)
VH: B1 VH
VL: B1 VL with L33I, F91Y, L94I
B9: AB200-R1H32-R2Vk27 (Fab, V domains shown)
VH: B1 VH
VL: B1 VL with A51T, S53N, L54I, F91Y, L94I
B10: AB200-R1H32-R2Vk9 (Fab, V domains shown)
VH: B1 VH
VL: B1 VL with F91Y, K93R
B11: AB200-R1H32-R2Vk15 (Fab, V domains shown)
VH: B1 VH
VL: B1 VL with L33I, F91Y, K93R, L94I, S97T
B12: AB200-R1H32-R2Vk39 (Fab, V domains shown)
VH: B1 VH
VL: B1 VL with L33I, A51T, S53N, L54I, F91Y, K93R
B13: AB200-R1H32-R2Vk12 (Fab, V domains shown)
VH: B1 VH
VL: B1 VL with F91Y, L94I
B14: AB200-R1H32-R2Vk7 (Fab, V domains shown)
VH: B1 VH
VL: B1 VL with L33I, A51T, S53N, L54I
B15: AB200-R1H32-R2Vk16 (Fab, V domains shown)
VH: B1 VH
VL: B1 VL with L33I, K93R, S97T
B16: AB200-R1H32-R2Vk3 (Fab, V domains shown)
VH: B1 VH
VL: B1 VL with A51T, S53N
B17: AB200-R1H32-R2Vk28 (Fab, V domains shown)
VH: B1 VH
VL: B1 VL with A51T, S53N, L54I, L94I, S97T
B18: AB200-R1H32-R2Vk4 (Fab, V domains shown)
VH: B1 VH
VL: B1 VL with A51T, S53N, L54I
B19: AB200-R1H32-R2Vk42 (Fab, V domains shown)
VH: B1 VH
VL: B1 VL with L33I, A51T, S53N, L54I, F91Y, L94I
B20: AB200-R1H32-R2Vk35 (Fab, V domains shown)
VH: B1 VH
VL: B1 VL with L33I, A51T, S53N, F91Y, K93R, L94I, S97T
B21: AB200-R1H32-R2Vk21 (Fab, V domains shown)
VH: B1 VH
VL: B1 VL with A51T, S53N, K93R, S97T
B22: AB200-R1H32-R2Vk11 (Fab, V domains shown)
VH: B1 VH
VL: B1 VL with K93R, S97T
B23: AB200-R1H32-R2Vk13 (Fab, V domains shown)
VH: B1 VH
VL: B1 VL with L94I, S97T
B24: AB200-R1H32-R2Vk45 (Fab, V domains shown)
VH: B1 VH
VL: B1 VL with L33I, A51T, S53N, S56I, F91Y, K93R, L94I, S97T
B25: AB200-R1H32-R2Vk10 (Fab, V domains shown)
VH: B1 VH
VL: B1 VL with F91Y, K93R, L94I, S97T
B26: AB200-R1H32-R2Vk41 (Fab, V domains shown)
VH: B1 VH
VL: B1 VL with L33I, A51T, S53N, L54I, K93R, S97T
B27: AB200-R1H32-R2Vk46 (Fab, V domains shown)
VH: B1 VH
VL: B1 VL with L33I, A51T, S53N, S56I, K93R, S97T
B28: AB200-R1H32-R2Vk36 (Fab, V domains shown)
VH: B1 VH
VL: B1 VL with L33I, A51T, S53N, K93R, S97T
B29: AB200-R1H32-R2Vk14 (Fab, V domains shown)
VH: B1 VH
VL: B1 VL with L33I, F91Y, K93R
B30: AB200-R1H32-R2Vk24 (Fab, V domains shown)
VH: B1 VH
VL: B1 VL with A51T, S53N, L54I, F91Y, K93R
B31: AB200-R1H32-R2Vk47 (Fab, V domains shown)
VH: B1 VH
VL: B1 VL with L33I, A51T, S53N, S56I, F91Y, L94I

target: T2, extracellular domain of rhesus monkey BCMA (rhesus monkey, UniProt F7FFA0 1-53); experiment: Octet BLI; Fab 200 nM
T2 construct: extracellular domain; also called RhBCMA
T2 sequence (F7FFA0 entry or part of it): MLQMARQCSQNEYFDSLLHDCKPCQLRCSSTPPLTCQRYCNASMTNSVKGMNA

B1 and B2 are within 1.5-fold of each other in Kd: 5.42 nM for the first, 4.82 nM for the second.

Going from B3 to B4, the Kd falls from 5.66 nM to 2.82 nM (2-fold).

B5 and B6 are within 1.5-fold of each other in Kd: 4.63 nM for the first, 3.59 nM for the second.

B7 and B8 are within 1.5-fold of each other in Kd: 5.5 nM for the first, 7.49 nM for the second.

B9 and B10 are within 1.5-fold of each other in Kd: 6.9 nM for the first, 7.38 nM for the second.

B11 and B12 are within 1.5-fold of each other in Kd: 6.41 nM for the first, 4.76 nM for the second.

Going from B13 to B14, the Kd falls from 9.12 nM to 5 nM (1.8-fold). The second binds more tightly here.

B15 and B16 are within 1.5-fold of each other in Kd: 4.54 nM for the first, 4.38 nM for the second.

B17 and B18 are within 1.5-fold of each other in Kd: 5.99 nM for the first, 5.6 nM for the second.

B19 and B20 are within 1.5-fold of each other in Kd: 5.93 nM for the first, 4.13 nM for the second.

B21 and B22 are within 1.5-fold of each other in Kd: 3.31 nM for the first, 4.1 nM for the second.

Going from B23 to B24, the Kd falls from 6.59 nM to 3.33 nM (2-fold).

First: B25
Second: B26
The Kd of the first is 1.8-fold higher: 7.86 nM for the first, 4.26 nM for the second.

B27 and B28 are within 1.5-fold of each other in Kd: 2.98 nM for the first, 3.45 nM for the second.

B29 and B30 are within 1.5-fold of each other in Kd: 6.05 nM for the first, 4.89 nM for the second.

In the case of B31, the Kd is reported as 3.91 nM.

target: T1, extracellular domain of human BCMA; experiment: Octet BLI; Fab 200 nM

B1 and B2 are within 1.5-fold of each other in Kd: 1.27 nM for the first, 0.867 nM for the second.

B3 and B4 are within 1.5-fold of each other in Kd: 0.882 nM for the first, 0.665 nM for the second.

B5 and B6 are within 1.5-fold of each other in Kd: 1.23 nM for the first, 0.92 nM for the second.

B7 and B8 are within 1.5-fold of each other in Kd: 1.48 nM for the first, 1.43 nM for the second.

B9 and B10 are within 1.5-fold of each other in Kd: 1.21 nM for the first, 1.43 nM for the second.

B11 and B12 are within 1.5-fold of each other in Kd: 1.29 nM for the first, 1.06 nM for the second.

B13 and B14 are within 1.5-fold of each other in Kd: 1.53 nM for the first, 1.27 nM for the second.

B15 and B16 are within 1.5-fold of each other in Kd: 1.17 nM for the first, 1.01 nM for the second.

B17 and B18 are within 1.5-fold of each other in Kd: 1.19 nM for the first, 1.14 nM for the second.

B19 and B20 are within 1.5-fold of each other in Kd: 1.04 nM for the first, 0.843 nM for the second.

B21 and B22 are within 1.5-fold of each other in Kd: 0.8 nM for the first, 0.936 nM for the second.

First: B23
Second: B24
The Kd of the first is 3.1-fold higher: 2.2 nM for the first, 0.714 nM for the second.

First: B25
Second: B26
The Kd of the first is 1.8-fold higher: 2.1 nM for the first, 1.19 nM for the second. The second binds more tightly here.

B27 and B28 are within 1.5-fold of each other in Kd: 0.778 nM for the first, 0.83 nM for the second.

B29 and B30 are within 1.5-fold of each other in Kd: 1.32 nM for the first, 1.05 nM for the second.

With B31 the Kd was 0.766 nM.
